Earlier results on one substance are cited in article PMC4859893.

The series addresses EGFR (Homo sapiens) (UniProt P00533).

As to EGF (from UniProt P01133), the Kd (commonly the equilibrium constant for the complex coming apart) was 2 nM.
